15 sequences from the supplement of paper PMC9170038 can be followed below.

For the series, the system named is MS2 coat protein. In words: apparent KD of MS2 coat protein; higher = weaker reporter binding. Conditions: Eterna round: R107. An outline of the steps: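 On-chip transcription from Illumina sequencing clusters produced the designed RNA switches. These were titrated with SNAP-549-labelled MS2 coat protein (twofold steps, 0.7 or 1.5 nM to 3 µM) in 100 mM Tris-HCl pH 7.5, 80 mM KCl, 4 mM MgCl2, with or without constant ligand. The apparent KD given is the per-design median of normalised cluster binding-curve fits.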

Where [1] appears, read: input ligand: theophylline 20 uM.
[2] abbreviates: input ligand: theophylline 2 mM.
Where [3] appears, read: input ligand: tryptophan 2.4 mM.

As to “GUACACUAGUCGGCCGCCACUGUUACAUGAGGAUCACCCAUGUAGGAUCACCCAUGACAUGAGGAUAGGACCGGGACGCAUGAGG [Exclusion Tryptophan B]”, the “apparent KD of MS2 coat protein” value is, setting by setting: (input ligand: arginine 13.2 mM) 56.8 nM; under setting [1], 56.1 nM; under setting [2], 69 nM.
For “GUACAUGAGGAUCACCCAUGUAUAGUUGAAGGAGCGACCAGAGGGUCAGGUAGGUCGCAGCACAUGAGGUAAGGCCGUGUAUGCU [#1 Exclusion - Arginine A Attempt #20 (Inspired by Pi)]”, the “apparent KD of MS2 coat protein” value was found to be 17.2 nM (input ligand: arginine 13.2 mM); 15.2 nM (input ligand: none); 23.9 nM under setting [1]; 21.7 nM under setting [2]; 16.8 nM under setting [3].
As to “GUAGCGACGACGGCCGCCACUCACACGAGAGGGUAGACCAACCUUCACAUGAGGAUCACCCAUGUGAGGACCGGGUUGUCGGUAC [Exclusion - Tryptophan B]”, the “apparent KD of MS2 coat protein” value by setting is: (input ligand: arginine 13.2 mM) 20 nM; under setting [1], 26.6 nM; under setting [2], 33 nM.
On to “GUCACCAGGAGAAGGAGCGUGAAGACAUGAGGAUCACCCAUGUAGAGGCGCCGACGGCGUUCGCAGGUAGGUCGCUCCUGGUGAC [#1 Same State - Arginine B Attempt #17 (HarryS)]”, for which the “apparent KD of MS2 coat protein” value came out at 22 nM (input ligand: arginine 13.2 mM); 20.5 nM (input ligand: none); 35.2 nM under setting [1]; 26.6 nM under setting [2]; 20.4 nM under setting [3].
“GUCAGUGACAGAAGGAGCGACAUGAGGAUCACCCAUGUCUCCCGUUAUGGGAGUUCCUUAGGUCAGGUAGGUCGCUGUCACUGAC [#1 Exclusion - Arginine B Attempt #30 (Inspired by Omei)]”: the “apparent KD of MS2 coat protein” value (input ligand: arginine 13.2 mM) was found to be 227 nM; the “apparent KD of MS2 coat protein” value (input ligand: none) is 215 nM; the “apparent KD of MS2 coat protein” value under setting [1] is 137 nM; the “apparent KD of MS2 coat protein” value under setting [2] stood at 284 nM; the “apparent KD of MS2 coat protein” value under setting [3] came to 194 nM.
Turning to “GUCCUCAUGACGGCCGCCACUAAACAUGAGGAUCACCCAUGUAAUGAUCCAUUAAAUGAUAAUAGUAGGACCGGGUCAAAAUAAA [Same State Typptophan B GF11]”, the “apparent KD of MS2 coat protein” value is, setting by setting: (input ligand: arginine 13.2 mM) 135 nM; under setting [1], 833 nM; under setting [2], 979 nM.
“GUCCUCGACACGGCCGCCACUGGCUCGCCUGUUGGCGCCGACCCACAUGAGGAUCACCCAUGUUCCAGGACCGGGUGUCACAGCA [theeternabot_sameState_MS2_Trp_B_42]”: the “apparent KD of MS2 coat protein” value is, setting by setting: (input ligand: arginine 13.2 mM) 64.6 nM; under setting [1], 312 nM; under setting [2], 311 nM.
Regarding “GUCGCUGAGAGAAGGAGCGUGAAGACAUGAGGAUCACCCAUGUAGAGGCGCCGAAGGCGUUCGCAGGUAGGUCGCUCUCAGUGAC [#1 Same State - Arginine B Attempt #21 (HarryS)]”, the “apparent KD of MS2 coat protein” value reads like this: (input ligand: arginine 13.2 mM) 10.2 nM; (input ligand: none) 15.4 nM; under setting [1], 19.2 nM; under setting [2], 21.8 nM; under setting [3], 17.3 nM.
As for “GUCGGAGUCGGAAGGAGCGACAUGAGGAUCACCCAUGUCUCCCGUUAUGGGAGUUCCUUAGGUCAGGUAGGUCGCCGACUCCGAC [#1 Exclusion - Arginine B Attempt #24 (Inspired by Omei)]”, the “apparent KD of MS2 coat protein” value (input ligand: arginine 13.2 mM) worked out at 104 nM; the “apparent KD of MS2 coat protein” value (input ligand: none) was determined as 190 nM; the “apparent KD of MS2 coat protein” value under setting [1] is 202 nM; the “apparent KD of MS2 coat protein” value under setting [2] was 234 nM; the “apparent KD of MS2 coat protein” value under setting [3] was 240 nM.
For “GUCUCUGAGAGAAGGAGCGUGAAGACAUGAGGAUCACCCAUGUAGAGGCGCCGACGGCGUUCGCAGGUAGGUCGCUCUCAGAGAC [#1 Same State - Arginine B Attempt #19 (HarryS)]”, the “apparent KD of MS2 coat protein” value was 38.4 nM (input ligand: arginine 13.2 mM); 22 nM (input ligand: none); 35 nM under setting [1]; 17.1 nM under setting [2]; 23.7 nM under setting [3].
For the sequence “GUCUUUGACGAUCUGGGAAAACCAGAUCGACGAGGACCGGUACGGCCGCCACUCGUGUUUUCUUUACAUGAGGAUCACCCAUGUA [#17 Tryptophan A Same State]”, the “apparent KD of MS2 coat protein” value (input ligand: arginine 13.2 mM) came to 13.2 nM, the “apparent KD of MS2 coat protein” value under setting [1] amounted to 15.7 nM and the “apparent KD of MS2 coat protein” value under setting [2] worked out at 15.1 nM.
As for “GUGAAGUUAGUGAGCGUUAGUCAAGCCAAACGAGGACCGGUACGGCCGCCACUCGCGCAUCGACAUGAGGAUCACCCAUGUGCCG [theeternabot_exclusion_MS2_Trp_A_12]”, the “apparent KD of MS2 coat protein” value is 18.4 nM (input ligand: arginine 13.2 mM), 15.7 nM under setting [1] and 17.7 nM under setting [2].
For “GUGACUUAAAGGCGCCAUUUGUGAUAGGAAGGAGCGGCGAAAUAGCCAGGUAGGUCGCCUAUACAUGAGGAUCACCCAUGUCACC [XARG-A 26]”, the “apparent KD of MS2 coat protein” value runs as follows: (input ligand: arginine 13.2 mM) 48.7 nM; (input ligand: none) 98.5 nM; under setting [1], 84.4 nM; under setting [2], 123 nM; under setting [3], 73.7 nM.
For the sequence “GUGAGCGCCGAACAUCGCUGGUCCUCUAUCCGAGGACCGGUACGGCCGCCACUCGACAUGAGGAUCACCCAUGUUGGCACUGGCG [Inbemama]”, the “apparent KD of MS2 coat protein” value by setting is: (input ligand: arginine 13.2 mM) 9.22 nM; under setting [1], 13.4 nM; under setting [2], 11.7 nM.
In the case of “GUGCGGUCUGAUGAUACCAGAUGUGGUGGGAACAUGAGGAUCACCCAUGUUGUGAGGCAGGUCCCUUGGCAGCAUGAGUGAGCUU [TheoB-ms2@32-2]”, the “apparent KD of MS2 coat protein” value (input ligand: arginine 13.2 mM) was found to be 12.4 nM; the “apparent KD of MS2 coat protein” value (input ligand: none) amounted to 119 nM; the “apparent KD of MS2 coat protein” value under setting [1] turned out to be 229 nM; the “apparent KD of MS2 coat protein” value under setting [2] was 156 nM; the “apparent KD of MS2 coat protein” value under setting [3] stood at 72.6 nM.
